Molecular target: T1, recombinant PDGF domain of CgVEGF with a GST tag (rCgVEGF) (Crassostrea gigas, biotin (biotinylated; site not stated))
T1 chain: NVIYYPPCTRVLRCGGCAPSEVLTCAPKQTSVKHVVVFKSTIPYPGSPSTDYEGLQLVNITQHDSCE
Assay: BLI; Octet K2 (ForteBio); biotinylated rCgVEGF immobilised on streptavidin biosensors; rCgVEGFR in solution at 1150, 1125, 843.75, 632.81 and 474.61 ug/mL; global fit to a 1:1 binding model; rTrx as control analyte
Details: both partners purified

B1: recombinant extracellular domain of CgVEGFR with a Trx tag (rCgVEGFR) (domain or fragment)
chain: QLVVVEETDCLKRPCRNGGSCDDIDGDGNFTCGCLPQWSGHFCELDTNECLNPPCEHGGTCTNSHGGYFCACTEIWTGKNCEEFKRVTIVDPKPTMEIYPERERVDSENGSIYTSSGDIVLNSGENFTIECFGDYPIKLTFKSDRVAEAPDYLGMDIIRRPIANMSQNARAFGVIYLVSNPTYKYTGEYVCQYTENSLHTSKYIYIRDEDNLFLEKNKYPGVPIFKNSYLFEPLILPCHVSDPEADVKLLTNWGTEVQLPDSPITYDPKTGFLIEFPSYSFVGPFRCAASVNNGMMQTISYYVTFNVEYKPSPTLLPLGDLEIVLGEDFELRCQVTVPLSVQSVSIQWMYSSNENNVSLPISALMIAPGQRSDRVRFTRPVEDTSMASDKSKTYFSNLTVMNGMKMDQGRYTCNVTTGRSQSTAVSKNVILVGDGLLEIQQCKKGQEIADFRGNWTVITQEQQIGVQISCLIKSMPYPKVTWYFKGEELNFKNSTVSQRYNPTMLNTTRTLTNISLSIMLPGKEQVGLYEIIVEAGTKREYAHFQLVYQYKPVVLIPAINKDVPYLLPNTRYNVRALVSAVPPATSQGWLWQPCGELPSCKQNSNSWRNVTSDNYQRFNQSGHLKYYATNSKGTGEYVMKIKVAEYETGLGIHIDQEKPSIIQTFPLHVTCTATKWEYSNVKVVFWGETDSYWRDVNIQNGTTLLSHNTSLSWISELRIENFAPENVGLYGCEVDISSNSSKGHLSTGDALRVQMISLEKPVFTKNTLTDSVVETNMGHSYHVMDCSARGVPAPSIQWFKDGQLLNFTSEFLGLSLSDDNTSLTINKTDVVHSGIYVCEVENMNGVIYKNVTLQIKSSLQSQKLKTKVEKGT
Question: How did the Kd turn out when B1 was run?
Answer: 879 nM
